Experimental data reported in paper PMC11779849, “Outside-in engineering of cadherin endocytosis using a conformation strengthening antibody” (Nature Communications, 2025).

Tests used:
[1] = molecular target: T1, human P-cadherin W2A mutant ectodomain (EC1-5) (Homo sapiens, UniProt P22223, point mutant, biotin on the Avi-tag (BirA enzyme)); assay: far-Western, overlay or dot blot; Western blot: purified Pcad ectodomains boiled in SDS-PAGE sample buffer with 2-mercaptoethanol, run on gels, transferred to PVDF; probed with CQY684; details: both partners purified
T1 construct: signal peptide in the construct; Made with the Q5 site-directed mutagenesis kit from the WT ectodomain construct; also called Pcad W2A; W2A Pcad; source: Expi293 suspension cells, transfected, purified from conditioned media (Ni-NTA), biotinylated with BirA; not shown: Avi-tag, C-terminal, kept
T1 sequence (P22223 whole entry, looked up, stated change not applied, the tested form may be a part): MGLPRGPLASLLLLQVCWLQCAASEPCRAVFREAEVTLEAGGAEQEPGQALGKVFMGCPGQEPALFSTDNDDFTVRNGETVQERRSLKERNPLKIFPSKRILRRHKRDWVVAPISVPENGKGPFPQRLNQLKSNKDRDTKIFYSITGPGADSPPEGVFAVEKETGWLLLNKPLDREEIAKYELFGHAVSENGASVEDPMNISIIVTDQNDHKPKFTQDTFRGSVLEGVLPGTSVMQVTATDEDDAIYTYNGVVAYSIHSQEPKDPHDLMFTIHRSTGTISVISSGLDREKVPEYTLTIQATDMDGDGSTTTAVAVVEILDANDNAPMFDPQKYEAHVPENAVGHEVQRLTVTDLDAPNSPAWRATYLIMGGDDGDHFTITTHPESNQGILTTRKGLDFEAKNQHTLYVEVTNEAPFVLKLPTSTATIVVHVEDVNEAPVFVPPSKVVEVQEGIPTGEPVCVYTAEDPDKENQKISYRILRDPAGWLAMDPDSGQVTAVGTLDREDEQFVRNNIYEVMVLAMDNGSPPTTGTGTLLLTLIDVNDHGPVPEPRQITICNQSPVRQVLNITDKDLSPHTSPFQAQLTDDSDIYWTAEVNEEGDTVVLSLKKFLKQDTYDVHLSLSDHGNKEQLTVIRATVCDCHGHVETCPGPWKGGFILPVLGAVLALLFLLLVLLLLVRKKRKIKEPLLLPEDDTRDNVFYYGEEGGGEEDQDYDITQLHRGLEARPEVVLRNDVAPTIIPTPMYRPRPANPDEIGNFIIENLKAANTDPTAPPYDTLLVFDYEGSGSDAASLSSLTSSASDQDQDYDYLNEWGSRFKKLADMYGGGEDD

[2] = molecular target: T2, wild-type human P-cadherin ectodomain (EC1-5) (human, UniProt P22223, biotin on the Avi-tag (BirA enzyme)); assay: single-molecule AFM force spectroscopy; as the -CQY experiment but with 40 nM CQY684 Fab in the buffer (+CQY); Pcad EC1-5 on cantilever and substrate; 1 µm/s; Tris buffer pH 7.5 with 2.5 mM CaCl2; details: both partners purified
T2 construct: signal peptide in the construct; human P-cadherin (placental cadherin), complete extracellular region EC1-5, ectodomain (1-654); Cloned into pcDNA3.1(+); residue numbers W2, K14 count on the mature protein; also called Pcad WT; WT Pcad; source: Expi293 suspension cells, transfected, purified from conditioned media (Ni-NTA), biotinylated with BirA; not shown: Avi-tag, C-terminal, kept
T2 sequence (P22223 108-654): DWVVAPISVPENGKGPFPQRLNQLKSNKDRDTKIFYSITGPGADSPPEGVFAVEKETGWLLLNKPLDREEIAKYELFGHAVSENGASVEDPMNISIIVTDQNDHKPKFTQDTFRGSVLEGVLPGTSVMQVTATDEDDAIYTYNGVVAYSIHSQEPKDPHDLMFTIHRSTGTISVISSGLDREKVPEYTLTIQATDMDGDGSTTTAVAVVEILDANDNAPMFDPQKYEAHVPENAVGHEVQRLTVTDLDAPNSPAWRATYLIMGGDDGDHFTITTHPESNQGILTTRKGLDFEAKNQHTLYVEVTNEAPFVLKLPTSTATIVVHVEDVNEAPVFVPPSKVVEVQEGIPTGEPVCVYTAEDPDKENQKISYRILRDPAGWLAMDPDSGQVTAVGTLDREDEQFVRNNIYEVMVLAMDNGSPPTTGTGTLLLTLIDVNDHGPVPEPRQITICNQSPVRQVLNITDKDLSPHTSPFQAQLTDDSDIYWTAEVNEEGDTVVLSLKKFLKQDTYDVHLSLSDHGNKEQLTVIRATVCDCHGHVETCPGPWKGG

B1: CQY684 Fab (Fab, V domains shown)
VH: QVQLQQSGPGLVKPSQTLSLTCAISGDSVSSQSAAWNWIRQSPSRGLEWLGRIYYRSKWYNDYALSVKSRITINPDTSKNQFSLQLNSVTPEDTAVYYCARGEGYGREGFAIWGQGTLVTVSS
VL: DIQMTQSPSSLSASVGDRVTITCRASQTISNTLAWYQQKPGKAPKLLIYAASNLQSGVPSRFSGSGSGTDFTLTISSLQPEDFATYYCQQYLSWFTFGQGTKVEIK
notes: variable region cloned into a human IgG Fab backbone; the constant parts of the GenScript human IgG Fab backbone may differ from those in PDB 6ZTR; also called CQY Fab; antibody part of the antibody-drug conjugate PCA062; source: recombinantly generated by GenScript
B1: binds [1]; binds [2].
